Results as given in PMC6712418.

Target: Bovine plasma fibronectin (bovine) (UniProt P07589)
Experiment: dynamic single-molecule force spectroscopy (AFM); fibronectin adsorbed on a gold surface; integrin or proteoglycan tethered by PEG to the AFM tip; PBS; trigger force 500 pN, no dwell; retraction speed varied; Bell-Evans fit of rupture force against ln(loading rate), fm = 10^7 s^-1 assumed

Sequence of Bovine plasma fibronectin (bovine) (P07589 33-2478): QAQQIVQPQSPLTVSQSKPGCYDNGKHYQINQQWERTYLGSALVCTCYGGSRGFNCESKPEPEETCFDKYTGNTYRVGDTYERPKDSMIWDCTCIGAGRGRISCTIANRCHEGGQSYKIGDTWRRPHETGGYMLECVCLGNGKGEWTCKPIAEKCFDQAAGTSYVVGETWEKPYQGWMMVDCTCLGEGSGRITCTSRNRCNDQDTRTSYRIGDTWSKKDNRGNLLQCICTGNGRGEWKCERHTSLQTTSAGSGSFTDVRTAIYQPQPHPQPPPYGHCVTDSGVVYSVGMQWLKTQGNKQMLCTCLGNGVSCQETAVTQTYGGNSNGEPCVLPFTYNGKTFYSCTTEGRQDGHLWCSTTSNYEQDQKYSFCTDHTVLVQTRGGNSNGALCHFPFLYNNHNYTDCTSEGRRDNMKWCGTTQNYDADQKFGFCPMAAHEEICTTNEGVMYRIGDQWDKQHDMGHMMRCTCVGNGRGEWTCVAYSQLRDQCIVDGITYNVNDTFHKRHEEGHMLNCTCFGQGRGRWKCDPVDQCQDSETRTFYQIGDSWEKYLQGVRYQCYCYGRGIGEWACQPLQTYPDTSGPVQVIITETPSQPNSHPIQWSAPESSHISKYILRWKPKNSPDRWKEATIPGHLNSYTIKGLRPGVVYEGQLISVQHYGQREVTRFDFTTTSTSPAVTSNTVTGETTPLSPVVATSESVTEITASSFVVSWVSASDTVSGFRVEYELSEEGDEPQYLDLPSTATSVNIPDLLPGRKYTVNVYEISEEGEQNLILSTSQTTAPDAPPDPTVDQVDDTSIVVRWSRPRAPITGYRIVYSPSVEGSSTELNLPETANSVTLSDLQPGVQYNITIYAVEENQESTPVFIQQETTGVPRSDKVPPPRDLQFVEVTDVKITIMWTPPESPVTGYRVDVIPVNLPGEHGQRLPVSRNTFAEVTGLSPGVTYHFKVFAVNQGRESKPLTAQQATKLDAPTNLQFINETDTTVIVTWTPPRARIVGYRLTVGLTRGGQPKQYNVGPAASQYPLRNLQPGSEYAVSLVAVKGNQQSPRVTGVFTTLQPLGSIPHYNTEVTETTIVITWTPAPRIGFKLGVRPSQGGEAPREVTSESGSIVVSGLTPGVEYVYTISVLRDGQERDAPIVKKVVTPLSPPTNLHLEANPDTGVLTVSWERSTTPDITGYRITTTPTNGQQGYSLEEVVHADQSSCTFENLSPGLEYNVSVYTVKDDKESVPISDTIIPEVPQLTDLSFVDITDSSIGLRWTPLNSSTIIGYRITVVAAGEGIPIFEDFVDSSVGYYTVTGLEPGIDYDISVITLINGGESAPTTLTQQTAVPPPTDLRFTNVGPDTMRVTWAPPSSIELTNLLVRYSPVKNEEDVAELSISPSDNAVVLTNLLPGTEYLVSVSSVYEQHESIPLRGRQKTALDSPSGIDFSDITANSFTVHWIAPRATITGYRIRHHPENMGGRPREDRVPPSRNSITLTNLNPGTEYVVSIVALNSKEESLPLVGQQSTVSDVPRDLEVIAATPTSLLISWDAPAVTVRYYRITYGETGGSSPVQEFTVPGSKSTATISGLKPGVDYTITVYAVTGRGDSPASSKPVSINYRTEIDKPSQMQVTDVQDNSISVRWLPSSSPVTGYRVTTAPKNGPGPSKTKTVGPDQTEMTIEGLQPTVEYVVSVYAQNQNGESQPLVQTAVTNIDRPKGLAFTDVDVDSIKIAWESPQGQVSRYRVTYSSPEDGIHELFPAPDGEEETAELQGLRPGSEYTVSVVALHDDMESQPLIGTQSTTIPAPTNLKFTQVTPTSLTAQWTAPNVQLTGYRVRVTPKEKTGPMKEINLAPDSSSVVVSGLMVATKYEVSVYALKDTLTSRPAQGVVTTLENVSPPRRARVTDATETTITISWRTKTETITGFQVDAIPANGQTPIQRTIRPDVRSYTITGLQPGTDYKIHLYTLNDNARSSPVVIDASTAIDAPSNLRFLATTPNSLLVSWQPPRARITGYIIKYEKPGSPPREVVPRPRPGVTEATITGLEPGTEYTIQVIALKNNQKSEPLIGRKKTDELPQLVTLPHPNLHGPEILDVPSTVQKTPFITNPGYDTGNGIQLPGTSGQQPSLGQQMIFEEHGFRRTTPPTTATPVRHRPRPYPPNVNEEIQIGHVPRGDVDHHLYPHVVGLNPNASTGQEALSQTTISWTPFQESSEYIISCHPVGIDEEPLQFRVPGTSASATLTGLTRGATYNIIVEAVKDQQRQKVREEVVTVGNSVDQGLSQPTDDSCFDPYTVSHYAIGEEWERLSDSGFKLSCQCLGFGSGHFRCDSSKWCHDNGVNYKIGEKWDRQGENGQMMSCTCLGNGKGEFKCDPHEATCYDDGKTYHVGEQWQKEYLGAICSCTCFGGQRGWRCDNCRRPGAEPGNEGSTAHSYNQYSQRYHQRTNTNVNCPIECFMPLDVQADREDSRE

- dissociation rate Kd, inner barrier: 70 s⁻¹
- dissociation rate Kd, outer barrier: 0.18 s⁻¹
Substance: Recombinant human α5β1-integrin (from UniProt P08648 42-1049; P05556 21-728) (receptor)
